{"source": "the supplement of paper PMC7125110", "parents": {"B1": {"name": "glmS ribozyme (parent)", "chain": "AUAAAAGCGCCAGAACUACAGAAAUGUAGUUGACGAGGAGGAGGUUUAUCGAAUUUUCGGCGGAUGCCUCCAAA"}}, "note": "± gives the standard error. Variants at the floor of the assay were thinned out."}
{"variants_of": "B1", "test": "self-cleavage kobs at 10000 uM GlcN6P; higher = faster cleavage; RNA array", "details": "with glucosamine-6-phosphate", "how_it_was_run": "(§1)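 Sequenced MiSeq chips were the platform: E. coli RNA polymerase transcribed barcoded ribozyme variants on them in situ, and a hybridised Cy3 probe tracked these at 37 °C. After glucosamine-6-phosphate (40 μM to 10 mM) in HEPES/KCl/Mg(OAc)2 buffer was flowed in, tiles were imaged over ~14 h. Signals normalised to baseline and to non-cleaving reference variants were reduced to per-tile medians and fit to one- or two-exponential decays to obtain kobs. kcat and KM were derived through weighted Michaelis–Menten fits across concentrations.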", "units": {"self-cleavage kobs at 10000 uM GlcN6P": "s⁻¹"}}
{"variant": "G29A U31C U54G", "self-cleavage kobs at 10000 uM GlcN6P": "0.000213 ± 6.7e-05"}
{"variant": "A14G G29C A39G", "self-cleavage kobs at 10000 uM GlcN6P": "0.000412 ± 7.6e-05"}
{"variant": "A33C U56G", "self-cleavage kobs at 10000 uM GlcN6P": "5.35e-05 ± 1e-05"}
{"variant": "C10G C71A", "self-cleavage kobs at 10000 uM GlcN6P": "< 1e-05"}
{"variant": "U31G C67A C71A", "self-cleavage kobs at 10000 uM GlcN6P": "0.000258 ± 6.9e-05"}
{"variant": "U31C A36U", "self-cleavage kobs at 10000 uM GlcN6P": "< 1e-05"}
{"variant": "A14U G40C U46C A53G C71G", "self-cleavage kobs at 10000 uM GlcN6P": "0.00202 ± 0.00042"}
{"variant": "G7A U55A G66A C67U U69G", "self-cleavage kobs at 10000 uM GlcN6P": "0.000476 ± 0.00013"}
{"variant": "C16U U30G G32A C68U", "self-cleavage kobs at 10000 uM GlcN6P": "0.000157 ± 5.1e-05"}
{"variant": "A48U U56A C68U", "self-cleavage kobs at 10000 uM GlcN6P": "7.52e-05 ± 1.8e-05"}
{"variant": "C16U G32A C58A U69A", "self-cleavage kobs at 10000 uM GlcN6P": "7.78e-05 ± 1.2e-05"}
{"variant": "G44U U46A", "self-cleavage kobs at 10000 uM GlcN6P": "0.000117 ± 2.9e-05"}
{"variants_of": "B1", "test": "self-cleavage kobs at 2500 uM GlcN6P; higher = faster cleavage; RNA array", "details": "with glucosamine-6-phosphate", "how_it_was_run": "as §1", "units": {"self-cleavage kobs at 2500 uM GlcN6P": "s⁻¹"}}
{"variant": "A15G A33G A48C C61A", "self-cleavage kobs at 2500 uM GlcN6P": "< 1e-05"}
{"variant": "U30G A53C U54A", "self-cleavage kobs at 2500 uM GlcN6P": "0.000695 ± 0.00017"}
{"variant": "G51A A53C G62U", "self-cleavage kobs at 2500 uM GlcN6P": "< 1e-05"}
{"variant": "C8U C10G G38A", "self-cleavage kobs at 2500 uM GlcN6P": "< 1e-05"}
{"variant": "A14U G32U G40U", "self-cleavage kobs at 2500 uM GlcN6P": "3.98e-05 ± 1.3e-05"}
{"variant": "A12G A14C A53U A64C", "self-cleavage kobs at 2500 uM GlcN6P": "< 1e-05"}
{"variant": "A6G G41U U46G G60C", "self-cleavage kobs at 2500 uM GlcN6P": "< 1e-05"}
{"variant": "C8G A15G U30C A42G U45A U46G", "self-cleavage kobs at 2500 uM GlcN6P": "< 1e-05"}
{"variant": "A6G G43U G44A A48U G63A", "self-cleavage kobs at 2500 uM GlcN6P": "< 1e-05"}
{"variant": "C16G U30C A33C C68U", "self-cleavage kobs at 2500 uM GlcN6P": "< 1e-05"}
{"variant": "G7U A64G G66A", "self-cleavage kobs at 2500 uM GlcN6P": "< 1e-05"}
{"variant": "A6G C16A C34A A36U G43U", "self-cleavage kobs at 2500 uM GlcN6P": "< 1e-05"}
{"variant": "A14G G29C A39G", "self-cleavage kobs at 2500 uM GlcN6P": "0.000197 ± 9.1e-05"}
{"variant": "G9U C10U C67U", "self-cleavage kobs at 2500 uM GlcN6P": "< 1e-05"}
{"variant": "G9A C11G A33U G35A C58A C70G", "self-cleavage kobs at 2500 uM GlcN6P": "< 1e-05"}
{"variant": "A33C U56G", "self-cleavage kobs at 2500 uM GlcN6P": "5.24e-05 ± 2.2e-05"}
{"variant": "C8U G29U A36U", "self-cleavage kobs at 2500 uM GlcN6P": "< 1e-05"}
{"variant": "A15C G37U G40C", "self-cleavage kobs at 2500 uM GlcN6P": "< 1e-05"}
{"variant": "A33C A53U U54G", "self-cleavage kobs at 2500 uM GlcN6P": "0.000173 ± 4.3e-05"}
{"variant": "C11A A12G G44U C71A", "self-cleavage kobs at 2500 uM GlcN6P": "< 1e-05"}
{"variant": "A33G U56C G60A", "self-cleavage kobs at 2500 uM GlcN6P": "< 1e-05"}
{"variant": "G13C G29C G38U C67G", "self-cleavage kobs at 2500 uM GlcN6P": "0.000596 ± 0.0002"}
{"variant": "C10G C16U A33G G40C U47G U56G", "self-cleavage kobs at 2500 uM GlcN6P": "< 1e-05"}
{"variant": "U31C G32A G38C G43A", "self-cleavage kobs at 2500 uM GlcN6P": "< 1e-05"}
{"variant": "A15G A33C U45A", "self-cleavage kobs at 2500 uM GlcN6P": "0.000135 ± 4.1e-05"}
{"variant": "G41U U56C C70G", "self-cleavage kobs at 2500 uM GlcN6P": "0.00166 ± 0.00032"}
{"variant": "A12G A53G G63C", "self-cleavage kobs at 2500 uM GlcN6P": "< 1e-05"}
{"variant": "G29C G38U U56C", "self-cleavage kobs at 2500 uM GlcN6P": "< 1e-05"}
{"variant": "G9U C16A U30G", "self-cleavage kobs at 2500 uM GlcN6P": "< 1e-05"}
{"variant": "C8A A48C U49A", "self-cleavage kobs at 2500 uM GlcN6P": "< 1e-05"}
{"variant": "A6G A14C A53G", "self-cleavage kobs at 2500 uM GlcN6P": "6.89e-05 ± 1.6e-05"}
{"variant": "G29U U57A", "self-cleavage kobs at 2500 uM GlcN6P": "4.22e-05 ± 1.5e-05"}
{"variant": "G29A G43C C68G", "self-cleavage kobs at 2500 uM GlcN6P": "0.00377 ± 0.0014"}
{"variant": "A6U C10G A39U C71U", "self-cleavage kobs at 2500 uM GlcN6P": "< 1e-05"}
{"variant": "G9A A42U", "self-cleavage kobs at 2500 uM GlcN6P": "< 1e-05"}
{"variant": "C10A G41C C50G A53C", "self-cleavage kobs at 2500 uM GlcN6P": "< 1e-05"}
{"variant": "C10U A12U A42G", "self-cleavage kobs at 2500 uM GlcN6P": "0.000153 ± 5.7e-05"}
{"variant": "A15U U56C U57G G63A C70G", "self-cleavage kobs at 2500 uM GlcN6P": "0.000104 ± 4.9e-05"}
{"variant": "U31G G41A G63U", "self-cleavage kobs at 2500 uM GlcN6P": "< 1e-05"}
{"variant": "U31A U46C", "self-cleavage kobs at 2500 uM GlcN6P": "0.000756 ± 0.00018"}
{"variant": "A14G C16G A64G U69G", "self-cleavage kobs at 2500 uM GlcN6P": "5.19e-05 ± 2.3e-05"}
{"variant": "G9C A39C C67A", "self-cleavage kobs at 2500 uM GlcN6P": "< 1e-05"}
{"variant": "C11U C19A", "self-cleavage kobs at 2500 uM GlcN6P": "0.000235 ± 0.0001"}
{"variant": "G41A U49C U57A G59U C68G", "self-cleavage kobs at 2500 uM GlcN6P": "< 1e-05"}
{"variant": "G26U G66U", "self-cleavage kobs at 2500 uM GlcN6P": "0.000774 ± 0.00023"}
{"variant": "A12C G37U A52G", "self-cleavage kobs at 2500 uM GlcN6P": "< 1e-05"}
{"variant": "G9U G32A A33C", "self-cleavage kobs at 2500 uM GlcN6P": "< 1e-05"}
{"variant": "U31C A36U", "self-cleavage kobs at 2500 uM GlcN6P": "< 1e-05"}
{"variant": "A48C U55C G63U", "self-cleavage kobs at 2500 uM GlcN6P": "< 1e-05"}
{"variant": "G44A A48G C67G", "self-cleavage kobs at 2500 uM GlcN6P": "8.88e-05 ± 2.9e-05"}
{"variant": "A14U G40C U46C A53G C71G", "self-cleavage kobs at 2500 uM GlcN6P": "0.00101 ± 0.00038"}
{"variant": "A6G G7C A36U A39U", "self-cleavage kobs at 2500 uM GlcN6P": "< 1e-05"}
{"variant": "A14G A42C U49C", "self-cleavage kobs at 2500 uM GlcN6P": "< 1e-05"}
{"variant": "A33G U47G G66A", "self-cleavage kobs at 2500 uM GlcN6P": "< 1e-05"}
{"variant": "G9U C50A G51U C68G", "self-cleavage kobs at 2500 uM GlcN6P": "0.00198 ± 0.00067"}
{"variant": "C11U U49A A52G", "self-cleavage kobs at 2500 uM GlcN6P": "< 1e-05"}
{"variant": "U46G G59C C68U C70A", "self-cleavage kobs at 2500 uM GlcN6P": "< 1e-05"}
{"variant": "A12U G13A G32C A36G C61U", "self-cleavage kobs at 2500 uM GlcN6P": "< 1e-05"}
{"variant": "G44C G51A U55C U56C", "self-cleavage kobs at 2500 uM GlcN6P": "< 1e-05"}
{"variant": "G9A A14G A15U U55A", "self-cleavage kobs at 2500 uM GlcN6P": "7.2e-05 ± 1.6e-05"}
{"variant": "G44C A53U U54G", "self-cleavage kobs at 2500 uM GlcN6P": "7.38e-05 ± 2e-05"}
{"variant": "C16U U30G G32A C68U", "self-cleavage kobs at 2500 uM GlcN6P": "7.75e-05 ± 3.2e-05"}
{"variant": "A48G U49G A52U A53G", "self-cleavage kobs at 2500 uM GlcN6P": "< 1e-05"}
{"variant": "C11A U54A U56A G59U", "self-cleavage kobs at 2500 uM GlcN6P": "0.00154 ± 0.00068"}
{"variant": "A52G U57G C58U", "self-cleavage kobs at 2500 uM GlcN6P": "4.96e-05 ± 1.8e-05"}
{"variant": "A6G C34G G40A C67G C70U", "self-cleavage kobs at 2500 uM GlcN6P": "< 1e-05"}
{"variant": "G7A A48G C70U", "self-cleavage kobs at 2500 uM GlcN6P": "< 1e-05"}
{"variant": "C11U U46G A52U G66A", "self-cleavage kobs at 2500 uM GlcN6P": "< 1e-05"}
{"variant": "A15U U55G C58U C70G", "self-cleavage kobs at 2500 uM GlcN6P": "6.29e-05 ± 2.7e-05"}
{"variant": "A6U C11U U57G C58G C61A C68U C70U", "self-cleavage kobs at 2500 uM GlcN6P": "0.000618 ± 0.00019"}
{"variant": "C16U U46C A53C", "self-cleavage kobs at 2500 uM GlcN6P": "0.000978 ± 0.0002"}
{"variant": "G41A A42U G62A", "self-cleavage kobs at 2500 uM GlcN6P": "< 1e-05"}
{"variant": "G44U U46A", "self-cleavage kobs at 2500 uM GlcN6P": "0.000112 ± 3.8e-05"}
{"variant": "G43U G44A C50U C61G", "self-cleavage kobs at 2500 uM GlcN6P": "< 1e-05"}
{"variant": "G7U A52G G60C C67G", "self-cleavage kobs at 2500 uM GlcN6P": "< 1e-05"}
